Laboratory results published in patent US20200087363A1 (IMMATICS BIOTECHNOLOGIES, published 2020).

Biological target: T1, HLA-B*44:05 (human)
T1 construct: also called peptide-receptive MHC class I molecule
Experiment: UV peptide exchange, anti-b2m ELISA
Method: Only peptide candidates that can effectively bind and stabilize the peptide-receptive MHC molecules prevent dissociation of the MHC complexes. To determine the yield of the exchange reaction, an ELISA was performed based on the detection of the light chain (β2m) of stabilized MHC complexes. The assay was performed as generally described in Rodenko et al. (Rodenko et al., 2006)
96 well MAXISorp plates (NUNC) were coated over night with 2 ug/ml streptavidin in PBS at room temperature, washed 4× and blocked for 1 h at 37° C. in 2% BSA containing blocking buffer. […] Peptide-MHC monomers of the UV-exchange reaction were diluted 100-fold in blocking buffer. Samples were incubated for 1 h at 37° C., washed four times, incubated with 2 ug/ml HRP conjugated anti-β2m for 1 h at 37° C., washed again and detected with TMB solution that is stopped with […]. Absorption was measured at 450 nm.

| peptide exchange yield [%] | Binder |
| --- | --- |
| 20 to 50 | TETDIDREY |
| 50 to 75 | WEVEVGDRTDW |
| 50 to 75 | TEGDVLNYIF |
| 50 to 75 | REAEEKEAQL |
| 20 to 50 | LEYEAPKLY |
| 50 to 75 | SESLPRAPL |
| 50 to 75 | NEAGEVSKHF |
| 20 to 50 | MEHSDENIQFW |
| 50 to 75 | RENPGMFSW |
| > 75 | MEILWKTLT |
| 10 to 20 | TEEPQRLFY |
| 50 to 75 | SEDTIHTHL |
| > 75 | TEEITEGVW |
| > 75 | MEIEGAGNFL |
| 50 to 75 | REEEANVVL |
| > 75 | QEDKATQTL |
| 50 to 75 | MEGAALLKIF |
| 50 to 75 | LEMLDAHRL |
| 50 to 75 | RELRPLFDRQW |

| peptide exchange yield [%] | Binder |
| --- | --- |
| 20 to 50 | YEIRAEAL |
| 50 to 75 | SEHSLEGQKF |
| 20 to 50 | SEKEPGQQY |
| > 75 | TEQALRLSV |
| 50 to 75 | SEVEGLAFV |
| 20 to 50 | SEFLLRIF |
| 20 to 50 | NEILTIHF |
| > 75 | TELEVKIRDW |
| 50 to 75 | MEIKGTVTEF |
| 50 to 75 | VEAATVSKW |
| 50 to 75 | SEAKEIKSQL |
| 50 to 75 | REILHAQTL |
| 50 to 75 | SEDPEKYYL |
| 20 to 50 | RELPLVLLA |
| > 75 | TEANVQALF |
| 20 to 50 | SVNPIIYGF |
| 50 to 75 | YERPTLVEL |
| 50 to 75 | SEASVYLFRF |

Continued, binder first:

| Binder | peptide exchange yield [%] |
| --- | --- |
| AEHDMKSVL | 50 to 75 |
| HEVAQDDHL | 20 to 50 |
| AEALVDGKWQEF | 50 to 75 |
| EEQLLQKVM | > 75 |
| AELPENLKALF | 50 to 75 |
| AEDLEKKYA | 20 to 50 |
| EELALRIGL | 50 to 75 |
| AEGEPPPALAW | 50 to 75 |
| DEDLFHKL | 20 to 50 |
| GETQQHIQL | 50 to 75 |
| KELSVFKKF | 50 to 75 |
| LEALLSDLF | 50 to 75 |
| EVEVGDRTDW | 20 to 50 |
| EEEVFSGMKL | > 75 |
| AEFVPKADLL | 50 to 75 |
| AGSPVMRKW | 20 to 50 |
| EEFLRPRSL | 20 to 50 |

| Binder | peptide exchange yield [%] |
| --- | --- |
| ALNGDIYVW | > 75 |
| AEGEPPPAL | 50 to 75 |
| EELHAALSEW | > 75 |
| EEHIFSAF | 20 to 50 |
| LEIMTNLVTL | > 75 |
| LEEPMPFFY | 10 to 20 |
| LEGGGRGGEF | 20 to 50 |
| KEAFGPQAL | > 75 |
| EEIFAHLGL | 50 to 75 |
| AEDNMVTSY | 50 to 75 |
| AEALVDGKW | 50 to 75 |
| KEMQVTISQQL | > 75 |
| DENDAGNLITF | 50 to 75 |
| LEDQLKPMLEW | 50 to 75 |
| EEHSSKLQTSL | > 75 |
| ALTEDSIDDTF | 10 to 20 |
